Results on 3 molecules are retold here after patent EP3366704A1 (Affimed GmbH, dated 2018).

For assay [1], the target named is T1, MMP1-003 peptide/HLA-A2 complex (on MMP1-003 peptide-pulsed T2 cells or HLA-A2+/MMP1+ tumor cells) (human). The assay can be described thus: cell-based or functional assay.
For assay [2], the target named is T2, CD16A (FcgammaRIIIA) on primary human NK-cells (human, UniProt P08637 17-254).
T2 construct: whole, on cells; also called CD16^+ NK-cells; CD16A^+ cells
Nature of the assay: flow cytometry on primary human NK-cells, on ice, one-site binding fit, mean of two experiments.

In assay [3] the target is T1, MMP1-003 peptide/HLA-A2 complex (on …). Nature of the assay: cell-based or functional assay. The source holds these as a separate data set.

What is called Kd is the equilibrium constant for the complex coming apart.

T2 sequence (P08637 17-254): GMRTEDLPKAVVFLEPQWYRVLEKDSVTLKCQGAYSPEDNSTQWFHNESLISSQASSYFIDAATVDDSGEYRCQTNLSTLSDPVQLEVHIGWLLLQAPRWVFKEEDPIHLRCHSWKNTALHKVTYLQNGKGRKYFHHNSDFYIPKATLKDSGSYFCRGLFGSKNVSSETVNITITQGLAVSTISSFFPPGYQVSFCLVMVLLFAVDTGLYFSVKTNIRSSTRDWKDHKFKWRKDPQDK

B1: TandAbCD16A 3 (anti-HLA-A2^MMP1-003/CD16A tandem diabody, target domain A02, variant 4) (bispecific antibody)
chain: EVQLVESGGGVVQPGRSLRLSCAASGFTFSSYAMHWVRQAPGKGLEWVAVISYDGSNKYYADSVKGRFTISRDNSKNTLYLQMNSLRTEDTAVYYCARDGGYYHYGLDVWGQGTTVTVSSGGSGGSGGSSYVLTQPSSVSVAPGQTATISCGGHNIGSKNVHWYQQRPGQSPVLVIYQDNKRPSGIPERFSGSNSGNTATLTISGTQAMDEADYYCQVWDNYSVLFGGGTKLTVLGGSGGSQVQLVQSGAEVKKPGESLKVSCKASGYTFTSYYMHWVRQAPGQGLEWMGAIEPMYGSTSYAQKFQGRVTMTRDTSTSTVYMELSSLRSEDTAVYYCARGSAYYYDFADYWGQGTLVTVSSGGSGGSGGSSYELTQPPSVSVSPGQTASITCSGDKLGDKYASWYQRKPGQSPVLLIYQDAKRPSGIPERFSGSNSGNTATLTISGTQAMDEADYYCQAWDSSTGVFGGGTKLTVLAAAGSHHHHHH
notes: Non-covalent homodimer; Variant 4: VH(A02)-L1-VL(CD16A)-L2-VH(CD16A)-L3-VL(A02); C-terminal 6xHis tag
For B1, the “Mean EC50 of target cell lysis, 4 h calcein-release assay, MMP1-003-pulsed T2 cells, human NK-cells E:T 5:1” value in assay [1] was 0.0057 nM. This molecule also yielded a Kd in assay [2] of 3.1 nM. In assay [3], the “Mean EC50 of target cell lysis, 4 h calcein-release assay, B-CPAP (HLA-A2+/MMP1+), human NK-cells E:T 5:1” value was 0.996 nM and the “Mean EC50 of target cell lysis, 4 h calcein-release assay, SW-982 (HLA-A2+/MMP1+), human NK-cells E:T 5:1” value is 1.16 nM.

B2: TandAbCD16A 1 (anti-HLA-A2^MMP1-003/CD16A tandem diabody, target domain A02, variant 2) (bispecific antibody)
chain: QVQLVQSGAEVKKPGESLKVSCKASGYTFTSYYMHWVRQAPGQGLEWMGAIEPMYGSTSYAQKFQGRVTMTRDTSTSTVYMELSSLRSEDTAVYYCARGSAYYYDFADYWGQGTLVTVSSGGSGGSGGSSYELTQPPSVSVSPGQTASITCSGDKLGDKYASWYQRKPGQSPVLLIYQDAKRPSGIPERFSGSNSGNTATLTISGTQAMDEADYYCQAWDSSTGVFGGGTKLTVLGGSGGSEVQLVESGGGVVQPGRSLRLSCAASGFTFSSYAMHWVRQAPGKGLEWVAVISYDGSNKYYADSVKGRFTISRDNSKNTLYLQMNSLRTEDTAVYYCARDGGYYHYGLDVWGQGTTVTVSSGGSGGSGGSSYVLTQPSSVSVAPGQTATISCGGHNIGSKNVHWYQQRPGQSPVLVIYQDNKRPSGIPERFSGSNSGNTATLTISGTQAMDEADYYCQVWDNYSVLFGGGTKLTVLAAAGSHHHHHH
notes: Non-covalent homodimer; Variant 2: VH(CD16A)-L1-VL(A02)-L2-VH(A02)-L3-VL(CD16A); C-terminal 6xHis tag
For B2, the “Mean EC50 of target cell lysis, 4 h calcein-release assay, MMP1-003-pulsed T2 cells, human NK-cells E:T 5:1” value in assay [1] was 0.0147 nM. The Kd in assay [2] was determined as 5.1 nM. In assay [3], the “Mean EC50 of target cell lysis, 4 h calcein-release assay, B-CPAP (HLA-A2+/MMP1+), human NK-cells E:T 5:1” value is 2.61 nM and the “Mean EC50 of target cell lysis, 4 h calcein-release assay, SW-982 (HLA-A2+/MMP1+), human NK-cells E:T 5:1” value is 4.29 nM.

B3: TandAbCD16A 2 (anti-HLA-A2^MMP1-003/CD16A tandem diabody, target domain B05, variant 2) (bispecific antibody)
chain: QVQLVQSGAEVKKPGESLKVSCKASGYTFTSYYMHWVRQAPGQGLEWMGAIEPMYGSTSYAQKFQGRVTMTRDTSTSTVYMELSSLRSEDTAVYYCARGSAYYYDFADYWGQGTLVTVSSGGSGGSGGSQSALTQPASVSGSPGQSITISCTGTSSDVGGYNYVSWYQQHPGKAPKLMIYDVSNRPSGVSNRFSGSKSGNTASLTISGLQAEDEADYYCSSYTSSSTLAYVFGTGTKLTVLGGSGGSQVQLVQSGAEAKKPGESLRISCRASGYMFSTFWIGWVRQMPGKGLEWVASIYPGDSNTIYSPSFQGQVTISADKSINTTYLQWSGLKASDTATYYCAKIRDGYSYDAFDLWGQGTMVTVSSGGSGGSGGSSYVLTQPSSVSVAPGQTATISCGGHNIGSKNVHWYQQRPGQSPVLVIYQDNKRPSGIPERFSGSNSGNTATLTISGTQAMDEADYYCQVWDNYSVLFGGGTKLTVLAAAGSHHHHHH
notes: Non-covalent homodimer; C-terminal 6xHis tag
As for B3, the “Mean EC50 of target cell lysis, 4 h calcein-release assay, MMP1-003-pulsed T2 cells, human NK-cells E:T 5:1” value in assay [1] is 0.0209 nM. In assay [2], this molecule displayed a dissociation constant Kd of 3.7 nM. In assay [3], the “Mean EC50 of target cell lysis, 4 h calcein-release assay, B-CPAP (HLA-A2+/MMP1+), human NK-cells E:T 5:1” value is 1.69 nM and the “Mean EC50 of target cell lysis, 4 h calcein-release assay, SW-982 (HLA-A2+/MMP1+), human NK-cells E:T 5:1” value is 2.86 nM.
